The values that follow come from IntAct's records for PubMed 29039417.

The labels stand for the following.
B1: Protein PTHB1 (Homo sapiens), Q3SYG4 (parent)
chain: MSLFKARDWWSTILGDKEEFDQGCLCLANVDNSGNGQDKIIVGSFMGYLRIFSPHPAKTGDGAQAEDLLLEVDLRDPVLQVEVGKFVSGTEMLHLAVLHSRKLCVYSVSGTLGNVEHGNQCQMKLMYEHNLQRTACNMTYGSFGGVKGRDLICIQSMDGMLMVFEQESYAFGRFLPGFLLPGPLAYSSRTDSFLTVSSCQQVESYKYQVLAFATDADKRQETEQQKLGSGKRLVVDWTLNIGEQALDICIVSFNQSASSVFVLGERNFFCLKDNGQIRFMKKLDWSPSCFLPYCSVSEGTINTLIGNHNNMLHIYQDVTLKWATQLPHIPVAVRVGCLHDLKGVIVTLSDDGHLQCSYLGTDPSLFQAPNVQSRELNYDELDVEMKELQKIIKDVNKSQGVWPMTEREDDLNVSVVVSPNFDSVSQATDVEVGTDLVPSVTVKVTLQNRVILQKAKLSVYVQPPLELTCDQFTFEFMTPDLTRTVSFSVYLKRSYTPSELEGNAVVSYSRPTDRNPDGIPRVIQCKFRLPLKLICLPGQPSKTASHKITIDTNKSPVSLLSLFPGFASQSDDDQVNVMGFHFLGGARITVLASKTSQRYRIQSEQFEDLWLITNELILRLQEYFEKQGVKDFACSFSGSIPLQEYFELIDHHFELRINGEKLEELLSERAVQFRAIQRRLLARFKDKTPAPLQHLDTLLDGTYKQVIALADAVEENQGNLFQSFTRLKSATHLVILLIALWQKLSADQVAILEAAFLPLQEDTQELGWEETVDAAISHLLKTCLSKSSKEQALNLNSQLNIPKDTSQLKKHITLLCDRLSKGGRLCLSTDAAAPQTMVMPGGCTTIPESDLEERSVEQDSTELFTNHRHLTAETPRPEVSPLQGVSE
partner: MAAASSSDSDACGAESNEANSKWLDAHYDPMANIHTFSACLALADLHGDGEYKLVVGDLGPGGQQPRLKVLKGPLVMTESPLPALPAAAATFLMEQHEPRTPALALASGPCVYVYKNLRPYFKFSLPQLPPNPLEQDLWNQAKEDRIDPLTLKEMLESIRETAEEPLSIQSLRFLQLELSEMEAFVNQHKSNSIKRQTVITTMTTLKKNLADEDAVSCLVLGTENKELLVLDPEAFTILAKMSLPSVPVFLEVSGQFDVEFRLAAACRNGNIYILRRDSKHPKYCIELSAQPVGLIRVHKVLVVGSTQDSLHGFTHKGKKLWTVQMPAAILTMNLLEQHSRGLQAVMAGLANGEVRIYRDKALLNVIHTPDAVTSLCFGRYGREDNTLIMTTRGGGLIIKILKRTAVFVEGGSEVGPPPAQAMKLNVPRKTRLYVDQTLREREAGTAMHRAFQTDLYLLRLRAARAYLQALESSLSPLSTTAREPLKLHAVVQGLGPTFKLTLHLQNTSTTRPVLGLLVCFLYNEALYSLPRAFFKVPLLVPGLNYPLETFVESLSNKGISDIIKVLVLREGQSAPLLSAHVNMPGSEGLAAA

In the test the parent is B1. As to conditions: with bbs1_human BBS1, Q8NFJ9.
As to C634A, the “effect of a mutation on the interaction” value is recorded as “with no effect”.
Next, C634E: “with no effect”; C634S: “disrupting interaction strength”; C634K: “with no effect”.
Next, Y599E: “with no effect”; Y599A: “with no effect”.
To Y599K belongs “with no effect”.
With S639E, the “effect of a mutation on the interaction” value is on record as “with no effect”.
Take S639A: the “effect of a mutation on the interaction” value was “with no effect”.
For S639K, the “effect of a mutation on the interaction” value is reported as “with no effect”.
On to I640A, for which the “effect of a mutation on the interaction” value was “with no effect”.
Next, I640E: “with no effect”; I640K: “with no effect”.
Next, D631A: “with no effect”.
To D631E belongs “with no effect”.
In the case of D631K, the “effect of a mutation on the interaction” value is reported as “with no effect”.
As for R587K, the “effect of a mutation on the interaction” value is listed as “with no effect”.
On to R587T, for which the “effect of a mutation on the interaction” value is “disrupting interaction strength”.
Next, R587E: “with no effect”.
Next, R587A: “with no effect”.
Consider T613A, for which the “effect of a mutation on the interaction” value is “with no effect”.
To T613E belongs “with no effect”.
On to T613K, for which the “effect of a mutation on the interaction” value is recorded as “with no effect”.
Consider T613I, for which the “effect of a mutation on the interaction” value is reported as “disrupting interaction strength”.
In the case of E607K, the “effect of a mutation on the interaction” value is recorded as “with no effect”.
To E607A belongs “with no effect”; to E607V, “disrupting interaction strength”; to G628K, “with no effect”.
With G628A, the “effect of a mutation on the interaction” value is “with no effect”.
To G628E belongs “with no effect”; to T595K, “with no effect”; to T595E, “with no effect”.
To T595A belongs “with no effect”; to Q597A, “with no effect”.
For the variant Q597E, the “effect of a mutation on the interaction” value was “with no effect”.
Next, Q597K: “with no effect”; Q597R: “disrupting interaction strength”.
As for V590K, the “effect of a mutation on the interaction” value is recorded as “with no effect”.
Next, V590E: “with no effect”; V590A: “with no effect”; E615A: “with no effect”.
Next, E615K: “with no effect”; K626A: “with no effect”; K626E: “with no effect”.
To L616F belongs “disrupting interaction strength”; to L616K, “with no effect”.
Regarding L616P, the “effect of a mutation on the interaction” value was “disrupting interaction strength”.
Next, L616A: “with no effect”.
To L616E belongs “with no effect”.
For the variant Q643A, the “effect of a mutation on the interaction” value was “with no effect”.
To F624K belongs “with no effect”; to F624A, “with no effect”.
To F624E belongs “with no effect”; to I612K, “with no effect”; to I612A, “with no effect”.
For I612E, the “effect of a mutation on the interaction” value is “with no effect”.
For I588A, the “effect of a mutation on the interaction” value is reported as “with no effect”.
To I588K belongs “with no effect”; to I588E, “with no effect”.
To L642K belongs “with no effect”; to L642E, “with no effect”.
Next, L642A: “with no effect”; I617K: “with no effect”.
As to I617A, the “effect of a mutation on the interaction” value is “with no effect”.
Next, I617E: “with no effect”; D608K: “with no effect”; D608E: “with no effect”.
Next, D608A: “with no effect”; S637A: “with no effect”; S637E: “with no effect”.
Next, S637K: “with no effect”.
With R598E, the “effect of a mutation on the interaction” value is reported as “with no effect”.
With R598K, the “effect of a mutation on the interaction” value is “with no effect”.
Take R598A: the “effect of a mutation on the interaction” value is “with no effect”.
To R598S belongs “disrupting interaction strength”; to L620A, “with no effect”; to L620K, “with no effect”.
To L620E belongs “with no effect”.
As for L620F, the “effect of a mutation on the interaction” value was “disrupting interaction strength”.
Next, L609K: “with no effect”; L609A: “with no effect”.
With L609E, the “effect of a mutation on the interaction” value is recorded as “with no effect”.
To F632E belongs “with no effect”; to F632K, “with no effect”.
Turning to F632A, the “effect of a mutation on the interaction” value is listed as “with no effect”.
As to G638E, the “effect of a mutation on the interaction” value is recorded as “with no effect”.
Regarding G638K, the “effect of a mutation on the interaction” value is reported as “with no effect”.
Turning to G638A, the “effect of a mutation on the interaction” value is on record as “with no effect”.
Next, V629K: “with no effect”; V629A: “with no effect”.
To V629E belongs “with no effect”; to R619A, “with no effect”.
Regarding R619C, the “effect of a mutation on the interaction” value is given as “disrupting interaction strength”.
In the case of R619E, the “effect of a mutation on the interaction” value is recorded as “with no effect”.
On to R619K, for which the “effect of a mutation on the interaction” value is given as “with no effect”.
To Q627A belongs “with no effect”.
Take Q627E: the “effect of a mutation on the interaction” value was “with no effect”.
With Q627T, the “effect of a mutation on the interaction” value is given as “disrupting interaction strength”.
Q627K: the “effect of a mutation on the interaction” value is “with no effect”.
Take R600A: the “effect of a mutation on the interaction” value is on record as “with no effect”.
Turning to R600E, the “effect of a mutation on the interaction” value is listed as “with no effect”.
As for R600G, the “effect of a mutation on the interaction” value is “disrupting interaction strength”.
Next, R600K: “with no effect”; G585R: “disrupting interaction strength”.
As for L618A, the “effect of a mutation on the interaction” value is “with no effect”.
Next, L618F: “disrupting interaction strength”; L618K: “with no effect”.
To L618E belongs “with no effect”; to Q605A, “with no effect”; to Q605E, “with no effect”.
Next, Q605K: “with no effect”; Q602K: “with no effect”.
Take Q602A: the “effect of a mutation on the interaction” value is reported as “with no effect”.
Take Q602E: the “effect of a mutation on the interaction” value was “with no effect”.
Turning to F606A, the “effect of a mutation on the interaction” value is reported as “with no effect”.
To F606K belongs “with no effect”; to F606E, “with no effect”.
Next, I601A: “with no effect”; I601E: “with no effect”.
For the variant I601K, the “effect of a mutation on the interaction” value is on record as “with no effect”.
As for K594A, the “effect of a mutation on the interaction” value is “with no effect”.
Consider K594E, for which the “effect of a mutation on the interaction” value is listed as “with no effect”.
For the variant N614A, the “effect of a mutation on the interaction” value was “with no effect”.
Turning to N614K, the “effect of a mutation on the interaction” value is given as “with no effect”.
To N614E belongs “with no effect”; to P641K, “with no effect”.
Next, P641E: “with no effect”; P641A: “with no effect”; S593K: “with no effect”.
Consider S593E, for which the “effect of a mutation on the interaction” value is “with no effect”.
Next, S593A: “with no effect”; E622K: “disrupting interaction strength”; E622A: “with no effect”.
As to S603A, the “effect of a mutation on the interaction” value is recorded as “with no effect”.
For the variant S603E, the “effect of a mutation on the interaction” value is given as “with no effect”.
For S603K, the “effect of a mutation on the interaction” value is “with no effect”.
Take A586K: the “effect of a mutation on the interaction” value was “with no effect”.
Take A586E: the “effect of a mutation on the interaction” value is on record as “with no effect”.
To E625K belongs “with no effect”.
Take E625A: the “effect of a mutation on the interaction” value is “with no effect”.
Turning to L611K, the “effect of a mutation on the interaction” value is listed as “with no effect”.
In the case of L611E, the “effect of a mutation on the interaction” value is recorded as “with no effect”.
For L611A, the “effect of a mutation on the interaction” value is “with no effect”.
To W610A belongs “with no effect”; to W610K, “with no effect”; to W610E, “with no effect”.
With A633V, the “effect of a mutation on the interaction” value is “disrupting interaction strength”.
To A633K belongs “with no effect”; to A633E, “with no effect”; to S596K, “with no effect”.
To S596A belongs “with no effect”; to S596E, “with no effect”.
With K630A, the “effect of a mutation on the interaction” value is recorded as “with no effect”.
K630E: the “effect of a mutation on the interaction” value is recorded as “with no effect”.
Next, Q621K: “with no effect”.
For the variant Q621A, the “effect of a mutation on the interaction” value is “with no effect”.
Turning to Q621E, the “effect of a mutation on the interaction” value was “with no effect”.
Next, L591A: “with no effect”; L591E: “with no effect”; L591K: “with no effect”.
Regarding S635A, the “effect of a mutation on the interaction” value is reported as “with no effect”.
Take S635E: the “effect of a mutation on the interaction” value is on record as “with no effect”.
For the variant S635K, the “effect of a mutation on the interaction” value was “with no effect”.
A592E: the “effect of a mutation on the interaction” value is recorded as “with no effect”.
Next, A592K: “with no effect”; A592V: “disrupting interaction strength”; E604K: “with no effect”.
Take E604A: the “effect of a mutation on the interaction” value was “with no effect”.
To E604V belongs “disrupting interaction strength”; to Y623K, “with no effect”; to Y623A, “with no effect”.
Regarding Y623E, the “effect of a mutation on the interaction” value is reported as “with no effect”.
Next, T589E: “with no effect”; T589K: “with no effect”.
Next, T589A: “with no effect”; F636K: “with no effect”; F636A: “with no effect”.
To F636E belongs “with no effect”.
